# Assays:
# [1] = system: E18-19 rat hippocampal neurons; test: GAD enzyme activity in hippocampal cultures; assay type: cell-based; conditions: recombinant rat CNTF 0.1 ng/ml; 8 days
# Experimental: Hippocampi were dissected from E18-19 rat embryos of Sprague-Dawley rats, and collected in F10 medium. The tissues were minced, rinsed twice with F10 medium (Gibco) and trypsinized with 0.25% trypsin (Gibco) for 20 minutes at 37° C. Trypsin was inactivated by the addition of a serum-containing medium composed of minimal essential medium (MEM) supplemented with fetal calf serum (FCS, 10%), glutamine (2 mM), penicillin (25 U/ml) and streptomycin (25 ug/ml). Dissociated cells obtained by gentle trituration were collected and centrifuged at low speed (500 rpm) for 30 seconds. The centrifugation was repeated twice, and the cell pellets were then resuspended in serum-containing medium. The cells were then plated onto 6 mm wells or 35 mm dishes that were coated with polyornithine (10 ug/ml) and laminin (10 ug/ml). In most of the experiments, the cells were plated at a low density of approximately 71,000 cells/cm^2. […]
# GAD enzyme activity was determined according to the method of Kimura and Kuriyama (1975, Jpn J. Pharm. 25:189-195) by measuring the release of ^14CO2 from L-[1-^14C] glutamic acid. […] The incubation was then continued for another 60 minutes. ^14CO2 released was trapped in Hyamine base solution, and was counted. […]
# [2] = system: Mediodorsal (MD) spinal cord neurons; test: E14 rat mediodorsal spinal cord neuron cultures in defined medium; assay type: cell-based
# Source text: Sprague-Dawley rats (HSD) were used for all experiments. Pregnant rats were sacrificed by carbon dioxide asphyxiation, and the embryos were rapidly removed and placed in ice-cold Puck's saline G for further dissection.
# Spinal cords were removed aseptically from rat embryos on the 14th day of gestation. The spinal cord was severed caudal to the bulb, freed of sensory ganglia and meninges. The cord was then subdivided into ventral and mediodorsal segments for separate cultures. The cord tissues were minced into small pieces and mechanically dissociated by trituration through a Pasteur pipet in defined culture medium consisting of 50% basal medium Eagle (BME; Gibco) and 50% Ham's nutrient mixture F12 (Gibco) supplemented with glucose (33 mM), glutamine (2 mM, NaHCO3 (15 mM), HEPES (10 mM), insulin (25 μg/ml), transferrin (100 μg/ml) putrescine (60 μM), progesterone (20 nM), Na selenite (30 nM), penicillin G (0.5 μg/ml), streptomycin (0.5 μg/ml), and bovine serum albumin (2.5 μg/ml). Trituration was repeated twice and the supernatants were pooled and filtered through a nylon (Nitex, Tetko) filter (40 μm). Total cell number yielded was determined by hemocytometer counting in the presence of trypan blue. Dissociated ventral cells were then plated at a density of 0.5 million cells/35 mm dish coated with poly-D-lysine (10 μg/ml). Dissociated mediodorsal cells were plated at a density of 1.5 million/35 mm dish coated with poly-D-lysine (10 μg/ml), poly-L-ornithine (10 μg/ml), or poly-L-ornithine with laminin (5 μg/ml). Treatments to these cultures were added at the time of plating. Cultures were maintained at 37° C. in a 95% air/5% CO2 atmosphere at nearly 100% relative humidity. Culture medium was changed every three to four days.
molecule,measurement,setting,value
"CNTF: ciliary neurotrophic factor; recombinant rat CNTF in Sections 10, 15, 17, purified rat sciatic nerve CNTF in Section 11; see endpoint conditions (protein, UniProt P20294 1-200, looked up) Ciliary neurotrophic factor: MAFAEQTPLTLHRRDLCSRSIWLARKIRSDLTALMESYVKHQGLNKNINLDSVDGVPVASTDRWSEMTEAERLQENLQAYRTFQGMLTKLLEDQRVHFTPTEGDFHQAIHTLMLQVSAFAYQLEELMVLLEQKIPENEADGMPATVGDGGLFEKKLWGLKVLQELSQWTVRSIHDLRVISSHQMGISALESHYGAKDKQM",maximal increase in GAD enzyme activity,[1],3.8 fold
same,survival of MD neurons,"[2]; 20 ng recombinant rat CNTF in 2 μl E. coli extract per ml at plating, by 48 hours",increased survival
same,μg protein dish,"[2]; CNTF 2 μl/ml (recombinant rat, E. coli extract), NGF 50 ng/ml at plating, day 7, Bradford",120 μg protein dish
same,protein/dish relative to untreated control and NGF-treated cultures,"[2]; recombinant rat CNTF in E. coli extract, day 7",6 times

# From US6602687B1, “DNA encoding human ciliary neurotrophic factor and method for producing the protein encoded thereby” (Regeneron Pharmaceuticals, Inc., priority 1989, dated 2003)
